Data on two molecules can be found in paper PMC11633740, “Rapid prediction of acute thrombosis via nanoengineered immunosensors with unsupervised clustering for multiple circulating biomarkers”.

The target in data set [1] is soluble P-selectin (sP-selectin) (human, UniProt P16109 42-771). As to the kind of experiment: electrochemical impedance spectroscopy; aptamer on Au NP/CNT electrode; linear 0.1-10^4 ng/ml, LOD 0.019 ng/ml; SPR (Biacore 2000, SA chip): 10 mM Hepes, 150 mM NaCl, pH 7.4, 0.005% Tween 20, 25 C; EIS: 45 min incubation (plasma workflow), PBS pH 7.4 washes, 5 mM ferri/ferrocyanide probe. As to conditions: protein: commercial.

The target of data set [2] is T1, C-reactive protein (CRP) (human, UniProt P02741 19-224).
T1 sequence: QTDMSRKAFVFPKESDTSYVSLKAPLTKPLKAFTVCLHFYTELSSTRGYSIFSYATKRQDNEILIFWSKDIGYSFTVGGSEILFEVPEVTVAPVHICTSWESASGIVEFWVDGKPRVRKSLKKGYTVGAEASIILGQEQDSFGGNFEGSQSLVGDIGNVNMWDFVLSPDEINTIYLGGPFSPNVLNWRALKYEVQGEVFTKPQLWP
As to the kind of experiment: electrochemical impedance spectroscopy; aptamer on Au NP/CNT electrode; linear 0.1-10^4 ug/ml, LOD 0.023 ug/ml; SPR (Biacore 2000, SA chip): 10 mM Hepes, 150 mM NaCl, pH 7.4, 0.005% Tween 20, 25 C; EIS: 45 min incubation (plasma workflow), PBS pH 7.4 washes, 5 mM ferri/ferrocyanide probe. As to conditions: protein: commercial; chain copies: 5. For orientation: SPR reads the build-up and loss of mass on a sensor chip optically.

Sequence of soluble P-selectin (sP-selectin) (P16109 42-771): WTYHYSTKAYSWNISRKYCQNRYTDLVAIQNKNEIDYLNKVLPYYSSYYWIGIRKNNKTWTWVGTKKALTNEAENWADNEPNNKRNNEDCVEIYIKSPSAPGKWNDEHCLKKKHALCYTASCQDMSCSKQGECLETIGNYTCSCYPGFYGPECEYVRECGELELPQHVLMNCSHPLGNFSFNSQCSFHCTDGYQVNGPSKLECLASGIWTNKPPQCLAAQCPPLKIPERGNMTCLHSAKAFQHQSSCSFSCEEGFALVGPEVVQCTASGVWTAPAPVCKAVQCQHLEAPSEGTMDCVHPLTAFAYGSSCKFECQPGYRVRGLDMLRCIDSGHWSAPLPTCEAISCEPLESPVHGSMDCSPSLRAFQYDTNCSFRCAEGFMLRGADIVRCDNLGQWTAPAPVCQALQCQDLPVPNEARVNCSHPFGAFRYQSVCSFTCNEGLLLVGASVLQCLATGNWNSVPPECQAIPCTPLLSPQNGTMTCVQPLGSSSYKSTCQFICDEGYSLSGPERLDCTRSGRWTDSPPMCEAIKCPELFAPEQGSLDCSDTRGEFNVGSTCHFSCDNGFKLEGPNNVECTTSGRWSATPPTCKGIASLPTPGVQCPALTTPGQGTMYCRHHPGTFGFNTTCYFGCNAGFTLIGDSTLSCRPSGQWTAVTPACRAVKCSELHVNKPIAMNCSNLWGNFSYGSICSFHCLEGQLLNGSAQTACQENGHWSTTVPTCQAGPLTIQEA

B1: sP-selectin aptamer (ssRNA)
RNA: ACGCUCAACGAGCCAGGAACAUCGACGUCAGCAAACGCGAGCGCAACCAGUAACACC
modifications: thiol (position not given) for the electrode; no 2' modification stated
For the molecule B1, the binding result in data set [1] is on record as “binds”.

Consider GCCTGTAAGGTGGTCGGTGTGGCGAGTGTGTTAGGAGAGATTGC (ssDNA, thiol (position not given) for the electrode) [CRP aptamer], for which, in data set [2], the binding result is listed as “binds”.
